The target of assay [1] is T1, rHuman EGF R/Fc Chimera, CF (R&D Systems Cat#344-ER) (human, UniProt P00533 25-645).
T1 construct: Bought Fc chimera; also called ErbB-1; not shown: Fc of the bought chimera
The assay can be described thus: ECL (MSD multi-spot), antigen on plate, Fab 50 nM.

In assay [2] the target is T2, rHuman Erythropoietin R/Fc Chimera, CF (R&D Systems Cat#963-ER) (human, UniProt P19235 25-250).
T2 construct: Bought Fc chimera; also called EPO R/Fc; Epo R; not shown: Fc of the bought chimera
T2 sequence: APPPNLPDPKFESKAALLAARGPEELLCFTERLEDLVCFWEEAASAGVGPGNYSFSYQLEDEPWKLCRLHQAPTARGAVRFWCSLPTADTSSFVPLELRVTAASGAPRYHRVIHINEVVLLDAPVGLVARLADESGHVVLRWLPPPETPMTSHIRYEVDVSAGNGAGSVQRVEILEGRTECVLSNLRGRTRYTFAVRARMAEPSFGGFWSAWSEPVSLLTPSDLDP
The assay can be described thus: ECL (MSD multi-spot), antigen on plate, Fab 50 nM.

Assay [3] addresses T3, rHuman IGF-1 sR (insulin-like growth factor-1 soluble receptor), CF (R&D Systems Cat#391-GR) (human, UniProt P08069 31-932).
T3 construct: Bought soluble receptor; also called IGF-R1
The assay can be described thus: ECL (MSD multi-spot), antigen on plate, Fab 50 nM.

Assay [4] concerns the target T4, rHuman Notch-1/Fc Chimera, CF (R&D Systems Cat#3647-TK) (human, UniProt P46531 19-526).
T4 construct: Bought Fc chimera; not shown: Fc of the bought chimera
The assay can be described thus: ECL (MSD multi-spot), antigen on plate, Fab 50 nM.

In assay [5] the target is T5, rHuman P-Cadherin/Fc Chimera, CF (R&D Systems Cat#861-PC) (human, UniProt P22223 108-654).
T5 construct: Bought Fc chimera; also called CDH3; not shown: Fc of the bought chimera
The assay can be described thus: ECL (MSD multi-spot), antigen on plate, Fab 50 nM.

The target of assay [6] is T6, rHuman HGF R/c-MET/Fc Chimera, CF (R&D Systems Cat#358-MT/CF) (human, UniProt P08581 25-932).
T6 construct: Bought Fc chimera; also called HGF R/Fc; not shown: Fc of the bought chimera
The assay can be described thus: ECL (MSD multi-spot), antigen on plate, Fab 50 nM.

Assay [7] concerns the target T7, Recombinant Human DLL4 (R&D Systems Cat#1506-D4/CF) (human, UniProt Q9NR61 27-524).
T7 construct: Bought recombinant protein; also called delta-like protein 4
The assay can be described thus: ECL (MSD multi-spot), antigen on plate, Fab 50 nM.

In assay [8] the target is T8, rHuman CD44/Fc Chimera, CF (R&D Systems Cat#3660-CD) (human, UniProt P16070 21-220).
T8 construct: Bought Fc chimera; not shown: Fc of the bought chimera
The assay can be described thus: ECL (MSD multi-spot), antigen on plate, Fab 50 nM.

Assay [9] concerns the target T1, rHuman EGF R/Fc Chimera, CF (R&D …). The assay can be described thus: ECL (MSD multi-spot), antigen on plate, Fab 50 nM. The source holds these as a separate data set.
The target in assay [10] is T2, rHuman Erythropoietin R/Fc Chimera, CF …. The assay can be described thus: ECL (MSD multi-spot), antigen on plate, Fab 50 nM. The source holds these as a separate data set.
In assay [11] the target is T3, rHuman IGF-1 sR (insulin-like growth …). The assay can be described thus: ECL (MSD multi-spot), antigen on plate, Fab 50 nM. This is another data set of the same source.
Assay [12] has as its target T4, rHuman Notch-1/Fc Chimera, CF (R&D …). The assay can be described thus: ECL (MSD multi-spot), antigen on plate, Fab 50 nM. This is another data set of the same source.
Assay [13] concerns the target T5, rHuman P-Cadherin/Fc Chimera, CF (R&D …). The assay can be described thus: ECL (MSD multi-spot), antigen on plate, Fab 50 nM. The source holds these as a separate data set.
Assay [14] addresses T9, rHuman ErbB2/Fc Chimera, CF (R&D Systems Cat#1129-ER) (human, UniProt P04626 23-652).
T9 construct: Bought Fc chimera; also called HER2/neu; not shown: Fc of the bought chimera
The assay can be described thus: ECL (MSD multi-spot), antigen on plate, Fab 50 nM.

Assay [15] has as its target T6, rHuman HGF R/c-MET/Fc Chimera, CF (R&D …). The assay can be described thus: ECL (MSD multi-spot), antigen on plate, Fab 50 nM. The source holds these as a separate data set.
Assay [16] concerns the target T7, Recombinant Human DLL4 (R&D Systems …). The assay can be described thus: ECL (MSD multi-spot), antigen on plate, Fab 2 nM.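 Note: blank spot per well as comparator with Hit at signal to blank ratio of 4 or more.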
Assay [17] addresses T1, rHuman EGF R/Fc Chimera, CF (R&D …). The assay can be described thus: ECL (MSD multi-spot), antigen on plate, Fab 2 nM.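 Note: blank spot per well as comparator with Hit at signal to blank ratio of 4 or more.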
Assay [18] has as its target T2, rHuman Erythropoietin R/Fc Chimera, CF …. The assay can be described thus: ECL (MSD multi-spot), antigen on plate, Fab 2 nM.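 Note: blank spot per well as comparator with Hit at signal to blank ratio of 4 or more.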
In assay [19] the target is T4, rHuman Notch-1/Fc Chimera, CF (R&D …). The assay can be described thus: ECL (MSD multi-spot), antigen on plate, Fab 2 nM.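 Note: blank spot per well as comparator with Hit at signal to blank ratio of 4 or more.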
The target of assay [20] is T9, rHuman ErbB2/Fc Chimera, CF (R&D …). The assay can be described thus: ECL (MSD multi-spot), antigen on plate, Fab 2 nM.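 Note: blank spot per well as comparator with Hit at signal to blank ratio of 4 or more.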
The target of assay [21] is T6, rHuman HGF R/c-MET/Fc Chimera, CF (R&D …). The assay can be described thus: ECL (MSD multi-spot), antigen on plate, Fab 2 nM.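 Note: blank spot per well as comparator with Hit at signal to blank ratio of 4 or more.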

Where a chain is given by its changes, count along the chain named. Read-outs that look alike come from different tables or passages of the source.

B1: Fab VH1-46_IGHD6-6*01_IGHJ1*01_S102A_S103P_S104Y_H111Y & L6_IGKJ1*01 (Fab, V domains shown)
VH: QVQLVQSGAEVKKPGASVKVSCKASGYTFTSYYMHWVRQAPGQGLEWMGIINPSGGSTSYAQKFQGRVTMTRDTSTSTVYMELSSLRSEDTAVYYCAREEYAPYSAEYFQYWGQGTLVTVSS
VL: not shown
notes: Fab made in E. coli; The heavy chain also carries CH1 with Flag and His tags from Plasmid A, and the light chain carries kappa CL from Plasmid C
Regarding B1, the ECL signal in assay [1] was found to be 489 ECL signal; in assay [2] it was 533 ECL signal; in assay [3] it was 399 ECL signal; in [4] it was 389 ECL signal; in assay [5] it was 470 ECL signal; in assay [6] it was 312 ECL signal.

B2: Fab VH1-46_IGHD6-6*01_IGHJ1*01_S102A_S103P_S104F & L6_IGKJ1*01_S28P (Fab, V domains shown)
VH: B1 VH with Y104F, Y111H
VL: EIVLTQSPATLSLSPGERATLSCRASQPVSSYLAWYQQKPGQAPRLLIYDASNRATGIPARFSGSGSGTDFTLTISSLEPEDFAVYYCQQRSNWPPWTFGQGTKVEIKR
notes: Fab
As for B2, the ECL signal in assay [7] stood at 37700 ECL signal; in assay [8], 340 ECL signal; in assay [9], 328 ECL signal; in assay [10], 527 ECL signal; in assay [11], 355 ECL signal; in assay [12], 477 ECL signal. Moreover, the ECL signal in [13] is 431 ECL signal; in assay [14], 384 ECL signal; in assay [15] it was 183 ECL signal.

B3: Fab VH1-46_IGHD6-6*01_IGHJ1*01_S102A_S103P_S104F & L6_IGKJ1*01_S31K (Fab, V domains shown)
VH: B1 VH with Y104F, Y111H
VL: B2 VL with P28S, S31K
notes: Fab
With B3, the ECL signal in assay [16] came to 10500 ECL signal; in [17], 197 ECL signal; in assay [18], 326 ECL signal; in assay [19], 202 ECL signal; in assay [20] it was 337 ECL signal; in assay [21], 183 ECL signal.

These data come from patent publication US20120058906A1 (published 2012).
